Experimental data from the Immune Epitope Database (IEDB).

What was measured:
Experiment in all cases: IEDB peptide-MHC binding, purified MHC/competitive/fluorescence; ≥ and ≤ were set here for values at or beyond the usual limits of such assays
Conditions in all cases: source organism: Plasmodium falciparum
HLA-A*01:01 = biological target: HLA-A*01:01
HLA-A*03:01 = biological target: HLA-A*03:01
HLA-A*02:01 = biological target: HLA-A*02:01
HLA-A*24:02 = biological target: HLA-A*24:02
HLA-B*07:02 = biological target: HLA-B*07:02
HLA-B*44:02 = biological target: HLA-B*44:02

ASDQPKQYEQ gave an IC50 (HLA-A*01:01) of no less than 126 µM.

In the case of ATCKYGFNK, the IC50 (HLA-A*03:01) is reported as 4.75 µM.

AVLATILMV showed an IC50 (HLA-A*02:01) of 23.6 µM.

AYLNKYVYTI was tested, and the IC50 (HLA-A*24:02) was 127 nM.

AYVSCYRVSF showed an IC50 (HLA-A*24:02) of 56.9 nM.

Sequence CLINNSSYI has an IC50 (HLA-A*02:01) of 3.82 µM.

CPRKNLQNA was tested, and the IC50 (HLA-B*07:02) was 0.484 µM.

In the case of CVCTYNYYKK, the IC50 (HLA-A*03:01) is reported as 14.4 µM.

In the case of DEYIHKLIL, the IC50 (HLA-B*44:02) is reported as no less than 100 µM.

With DFVIIPHYTF the IC50 (HLA-A*24:02) was 289 nM.

DLMNRTFKK was tested, and the IC50 (HLA-A*03:01) was no less than 100 µM.

Sequence DMKNYGTNLF has an IC50 (HLA-A*24:02) of 5300 nM.

DMSNEYSLFI was tested, and the IC50 (HLA-A*02:01) was no less than 100 µM.

With DSCVPNTNEY the IC50 (HLA-A*01:01) was no less than 100 µM.

DTDSNHTPSN was tested, and the IC50 (HLA-A*01:01) was 5.88 µM.

DVSTLNDEY was tested, and the IC50 (HLA-A*01:01) was 52.2 µM.

In the case of EEKDDIKNG, the IC50 (HLA-B*44:02) is reported as no less than 100 µM.

For EELQITQWI, the IC50 (HLA-B*44:02) was 19.6 µM.

Sequence EENYRCTQDI has an IC50 (HLA-B*44:02) of no less than 674 µM.

ENDYAYLNKY gave an IC50 (HLA-A*01:01) of 42.2 µM.

EYKDEYADI was tested, and the IC50 (HLA-A*24:02) was 2100 nM.

Work on EYPLHQEHTY yielded an IC50 (HLA-A*24:02) of 999 nM.

Sequence FEWHTLSKEY has an IC50 (HLA-B*44:02) of 19.1 µM.

FIPSHNSFI gave an IC50 (HLA-A*02:01) of 31 µM.

With FIPSHNSFIK the IC50 (HLA-A*03:01) was no less than 100 µM.

In the case of FISDDKDSL, the IC50 (HLA-A*02:01) is reported as no less than 336 µM.

Work on FISDDKDSLK yielded an IC50 (HLA-A*03:01) of no less than 697 µM.

FITSDHLRQM was tested, and the IC50 (HLA-B*07:02) was no less than 100 µM.

For FLDYYKHLSY, the IC50 (HLA-A*03:01) was no less than 100 µM and the IC50 (HLA-A*01:01) was 0.646 µM.

Sequence FLPTGAFKA has an IC50 (HLA-A*02:01) of 1.39 µM.

FLQYHFKEL gave an IC50 (HLA-A*02:01) of 14.6 µM.

FNDVPIKMEY showed an IC50 (HLA-A*01:01) of 0.498 µM.

Work on FNRIEYHTKI yielded an IC50 (HLA-B*07:02) of no less than 100 µM.

In the case of FPCSLYKDEI, the IC50 (HLA-B*07:02) is reported as no less than 100 µM.

For FQYNDDASI, the IC50 (HLA-A*02:01) was 0.275 µM.

With FTYDSEEYY the IC50 (HLA-A*01:01) was 0.136 µM.

In the case of FVCSNRDFLK, the IC50 (HLA-A*03:01) is reported as no less than 100 µM.

FVLENGVCI showed an IC50 (HLA-B*07:02) of no less than 284 µM and an IC50 (HLA-A*02:01) of 4.17 µM.

GEEDETHIY gave an IC50 (HLA-A*01:01) of no less than 261 µM.

Sequence GEEKRASHTT has an IC50 (HLA-B*44:02) of 10 µM.

In the case of GSYIYIDTIK, the IC50 (HLA-A*03:01) is reported as no less than 70.8 µM.

In the case of GYNWGNYNTE, the IC50 (HLA-A*24:02) is reported as no less than 100000 nM.

GYSTKAENKI showed an IC50 (HLA-A*24:02) of 1840 nM.

For HIYVQKKVK, the IC50 (HLA-A*03:01) was 0.897 µM.

With HLDFVIIPHY the IC50 (HLA-A*01:01) was no less than 118 µM.

HLNNIFHHL was tested, and the IC50 (HLA-A*02:01) was 0.225 µM.

HLSYNSIYHK was tested, and the IC50 (HLA-A*03:01) was 44.2 µM.

HPYDINNKND gave an IC50 (HLA-B*07:02) of no less than 100 µM.

Work on HREHPKEYEY yielded an IC50 (HLA-A*01:01) of 11.1 µM.

HTKIINDKTK showed an IC50 (HLA-A*03:01) of no less than 73 µM.

In the case of IEIVERSNY, the IC50 (HLA-B*44:02) is reported as 8.03 µM.

With IFFNNENSI the IC50 (HLA-A*24:02) was 56.9 nM.

Sequence IFHHLIYVL has an IC50 (HLA-A*24:02) of 9590 nM.

With IKKKLILTII the IC50 (HLA-B*07:02) was 44.1 µM.

Work on IKLNIWRTF yielded an IC50 (HLA-A*24:02) of 1420 nM.

For ILDMSNEYSL, the IC50 (HLA-A*02:01) was 6.87 µM.

ILNNSKFNK was tested, and the IC50 (HLA-A*03:01) was 0.42 µM.

IPDNDKNSNY gave an IC50 (HLA-A*01:01) of 14.7 µM.

Work on IPFHKKFISF yielded an IC50 (HLA-B*07:02) of 21.9 µM.

IPHYTFLDYY gave an IC50 (HLA-B*07:02) of no less than 100 µM.

Sequence ITSDHLRQM has an IC50 (HLA-B*07:02) of no less than 183 µM.

For IYIHLFILN, the IC50 (HLA-A*24:02) was no less than 142000 nM.

Work on IYKRELYNI yielded an IC50 (HLA-A*24:02) of 86.8 nM.

KDLSDMTNI gave an IC50 (HLA-B*44:02) of no less than 100 µM.

KEIDNDKENI gave an IC50 (HLA-B*44:02) of no less than 100 µM.

In the case of KEKFYKNNLY, the IC50 (HLA-B*44:02) is reported as no less than 919 µM.

KEKHLNNIF was tested, and the IC50 (HLA-B*44:02) was no less than 100 µM.

KEMKHIFNRI was tested, and the IC50 (HLA-B*44:02) was 39.2 µM.

KEYNNSEITI gave an IC50 (HLA-B*44:02) of 11 µM.

KIFTFIENK gave an IC50 (HLA-A*03:01) of 0.467 µM.

KINETYDKV showed an IC50 (HLA-A*02:01) of 10.1 µM.

With KLGVQYFFL the IC50 (HLA-A*02:01) was 0.805 µM.

KLKYVTESLK gave an IC50 (HLA-A*03:01) of 3.34 µM.

In the case of KLNIWRTFQK, the IC50 (HLA-A*03:01) is reported as 2.5 µM.

KLPLESSTI was tested, and the IC50 (HLA-A*02:01) was 2.12 µM and the IC50 (HLA-A*24:02) was 214 nM.

KMMDEYNTKK showed an IC50 (HLA-A*03:01) of 8.48 µM and an IC50 (HLA-A*02:01) of no less than 511 µM.

KMYSEFKSI gave an IC50 (HLA-A*02:01) of 1.02 µM.

For KPECVCKENL, the IC50 (HLA-B*07:02) was no less than 206 µM.

KPEKYGNTTA was tested, and the IC50 (HLA-B*07:02) was no less than 836 µM.

Sequence KPHECVCNKQ has an IC50 (HLA-B*07:02) of no less than 100 µM.

Sequence KRASHTTPV has an IC50 (HLA-B*07:02) of no less than 100 µM and an IC50 (HLA-A*02:01) of no less than 100 µM.

Sequence KSAFLPTGAF has an IC50 (HLA-B*07:02) of no less than 100 µM.

KVKDSWITL showed an IC50 (HLA-B*07:02) of 0.458 µM and an IC50 (HLA-A*02:01) of 4.01 µM.

For KVKSKCNDIK, the IC50 (HLA-A*03:01) was 39.3 µM.

Sequence KYLFIPSHN has an IC50 (HLA-A*24:02) of 6120 nM.

Work on LEFVCSNRDF yielded an IC50 (HLA-B*44:02) of 7.46 µM.

LICGVSPYK was tested, and the IC50 (HLA-A*03:01) was 0.419 µM.
